Measurements from PMC3528738.

Molecular target: MPERp (HIV-1 (HXBc2 isolate))
Assay: cross-linking; peptides (10 µg) in solution incubated with 20 µM BS3 for 1 h at 37°C, TCA precipitation, Tricine SDS-PAGE; detection by Western blot with MAb2F5 or by NBD fluorescence in the gel

MPERp (peptide), sequence (P03375 656-683): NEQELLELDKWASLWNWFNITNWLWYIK

## MPERp (peptide)
  stoichiometry N: 2
